Data published in the RNAGym collection of RNA variant scans (doi:10.1073/pnas.2313332121).

B1: TPR t1 (parent)
chain: GACCAAUCUGCCCUCAGAGCUCGAGAACAUCUUCGGAUGCAGAGGAGGCAGGCUUCGGUGGCGCGAUAGCGCCAACGUCCUCAACCUCCAAUGCAUCCCACCACAUGAUGAUGCCUGAAGAGCCUUGGUUUUUUG

Variants of: B1
Experiment: polymerase ribozyme fitness, log enrichment relative to wild type (log ratio); higher = more active; in vitro selection for triplet polymerase activity
How it was run: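 Mutant libraries of each subunit of a heterodimeric triplet polymerase ribozyme were built by PCR and transcribed. Each library went through one round of in vitro selection in triplicate: annealing with biotinylated primer, partner subunit and triplets, frozen incubation at −7 °C, gel excision of extended constructs, streptavidin-bead capture and RT-PCR. Input and output libraries were Illumina-sequenced; only genotypes with ≥10 input reads and ≥1 read per output were kept. Fitness is log2(genotype enrichment/wild-type enrichment), using inverse-variance-weighted replicate averages.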

Point of comparison: GACCAAUCUGCCCUCAGAGCUCGAGAACAUCUUCGGAUGCAGAGGAGGCAGGCUUCGGUGGCACGAUAGCGCCAACGUCCUCAACCUCCAAUGCAUCCCACCACAUGAUGAUGACUGAAGAGCCUUGGUUUUUUG [G63A C114A], “polymerase ribozyme fitness (log ratio)” value -1.9. Against it:
- GACCAAUCUGCCCUCAGAGCUCGAGAACAUCUUCGGAUGCAGAGGAGGCAGGCUUCGGUGGCACGAUAGCGCCAACGUUCUCGACCUCCAAUGCAUCCCACCACAUGAUGAUGCCUGAAGAGGCUUGGUUUUUUG [G63A C79U A83G C123G] — higher, 0.0609
- GACCAAUCUGCCCUCAGAGCUCGAGAACAUCUUCGGAUGCAGAGGAGGCAGGCUUCGGUGGCACGAUAGCGCGAACGUCCUCAACCUCCAAUGCAUCCCACCACAUGAUGAUGCCUGAAGAGCCUUGGUUUUUUG [G63A C73G] — lower, -4.71
- GACCAAUCUGCCCUCAGAGCUCGAGAACAUCUUCGGAUGCAGAGGAGGCAGGCUUCGGUGGCACGAUAGCGCCAACGUGCUCAACCUCCAAUGCAUCCCACCACAUGAUGAUGCCUGAAGAGCCUUGGUUUUUUG [G63A C79G] — lower, -3.65
- GACCAAUCUGCCCUCAGAGCUCGAGAACAUCUUCGGAUGCAGAGGAGGCAGGCUUCGGUGGCACGAUAGCGCCAACGUUCUCAACCUCCAAUGCAUCCCACCACAUGAUGAUGCCUGAAGAGCCUUGGUUUUUUG [G63A C79U] — higher, -1.07
- GACCAAUCUGCCCUCAGAGCUCGAGAACAUCUUCGGAUGCAGAGGAGGCAGGCUUCGGUGGCACGAUAGCGCCAACGUCCUCAACCUCCAAUGCAUCCCACUACAUGAUGAUGCCUGAAGAGCCUUGGUUUUUUG [G63A C102U] — lower, -3.27
- GACCAAUCUGCCCUCAGAGCUCGAGAACAUCUUCGGAUGCAGAGGAGGCAGGCUUCGGUGGCACGAUAGCGCCAACGUCCUGAACCUCCAAUGCAUCCCACCACAUGAUGAUGCCUUAAGAGGCUUGGUUUUUUG [G63A C82G G117U C123G] — lower, -3.95
- GACCAAUCUGCCCUCAGAGCUCGAGAACAUCUUCGGAUGCAGAGGAGGCAGGCUUCGGUGGCACGAUAGCGCCAACGUCCUCAACCUCCAAUGCAUCCCACCACAUGAUGAUGCCUGAAGAGUCUUGGUUUUUUG [G63A C123U] — higher, 0.883
- GACCAAUCUGCCCUCAGAGCUCGAGAACAUCUUCGGAUGCAGAGGAGGCAGGCUUCGGUGGCACGAUAGCGCCAACGUCCACAACCUCCAAUGCAUCCCACCACAUGAUGAUGCCUGAAGAGCCUUGGUUUUUUG [G63A U81A] — within 0.2 log units, -2.01
- GACCAAUCUGCCCUCAGAGCUCGAGAACAUCUUCGGAUGCAGAGGAGGCAGGCUUCGGUGGCACGAUAGCGCCAACGUCCUCAACCUCCAAUGCAUCCCAACACAUGAUGAUGCCUGAAGAGCCUUGGUUUUUUG [G63A C101A] — lower, -3.39
- GACCAAUCUGCCCUCAGAGCUCGAGAACAUCUUCGGAUGCAGAGGAGGCAGGCUUCGGUGGCACGAUAGCGCCAACGUCCUCAACCUCCAAUGCAUUCCACCACAUGAUGAUGCCUGAAGAGCCUUGGUUUUUUG [G63A C97U] — higher, -1.46
- GACCAAUCUGCCCUCAGAGCUCGAGAACAUCUUCGGAUGCAGAGGAGGCAGGCUUCGGUGGCACGAUAGCGCCAACGUCCUCAACCUCCAAUGCAUCCCACCACAUGAUGAUGCCUUAAGAGCCUUGGUUUUUUG [G63A G117U] — lower, -3.18
- GACCAAUCUGCCCUCAGAGCUCGAGAACAUCUUCGGAUGCAGAGGAGGCAGGCUUCGGUGGCACGAUAGCGCCAACGUCCUCAAACUCCAAUGCAUCCCACCACAUGAUGAUGCCUGAAGAGCCUUGGUUUUUUG [G63A C85A] — within 0.2 log units, -2.01
- GACCAAUCUGCCCUCAGAGCUCGAGAACAUCUUCGGAUGCAGAGGAGGCAGGCUUCGGUGGCACGAUAGCGCCAACGUCCUCAACCUCCAAUGCAUCGCACCACAUGAUGAUGCCUGAAGAGCCUUGGUUUUUUG [G63A C98G] — lower, -6.74
- GACCAAUCUGCCCUCAGAGCUCGAGAACAUCUUCGGAUGCAGAGGAGGCAGGCUUCGGUGGCACGAUAGCGCCAACGUCCUCAACCUCCAAUGCAUCUCACCACAUGAUGAUGCCUGAAGAGCCUUGGUUUUUUG [G63A C98U] — lower, -2.12
- GACCAAUCUGCCCUCAGAGCUCGAGAACAUCUUCGGAUGCAGAGGAGGCAGGCUUCGGUGGCACGAUAGCGCCAACGUCCUCAACCUCCAAUGCAUCCCACCACAUGAUGAUGCUUGAAGAGCCUUGGUUUUUUG [G63A C115U] — higher, -1.45
- GACCAAUCUGCCCUCAGAGCUCGAGAACAUCUUCGGAUGCAGAGGAGGCAGGCUUCGGUGGCACGAUAGCGCCAACGUCCUCAACCUCCAAUGCAUCCCACCACAUGAUGAUGCCUGAAGAGCCUUUGUUUUUUG [G63A G127U] — higher, -1.36
- GACCAAUCUGCCCUCAGAGCUCGAGAACAUCUUCGGAUGCAGAGGAGGCAGGCUUCGGUGGCACGAUAGCGCAAACGUCCUCAACCUCCAAUGCAUCCCACCACAUGAUGAUGCCUGACCAGCCUUGGUUUUUUG [G63A C73A A119C G120C] — higher, -1.42
- GACCAAUCUGCCCUCAGAGCUCGAGAACAUCUUCGGAUGCAGAGGAGGCAGGCUUCGGUGGCACGAUAGCGCCAACGUCCUGAACCUCCAAUGCAUCCCACCACAUGAUGAUGCCUGAAGAGCCUUGGUUUUUUG [G63A C82G] — higher, -1.41
- GACCAAUCUGCCCUCAGAGCUCGAGAACAUCUUCGGAUGCAGAGGAGGCAGGCUUCGGUGGCACGAUAGCGCCAACGUCCUCAACCUCCAAUGCAUCCCACCACAUGAUGAUGCCUGAAGAGCCUUGGUUUUUUU [G63A G135U] — higher, -1.49
- GACCAAUCUGCCCUCAGAGCUCGAGAACAUCUUCGGAUGCAGAGGAGGCAGGCUUCGGUGGCACGAUAGCGCCAACGUCCUCAACCUCCAAUGAAUCCCACCACAUGAUGAUGCCUGAAGAGCCUUGGUUUUUUG [G63A C94A] — higher, -0.982
